The values that follow are results of earlier work, collected in article PMC4843017.

The target in this data set is Ndc80 complex (Homo sapiens) (UniProt O14777). The experiment in a line: isothermal titration calorimetry. For orientation: Isothermal titration calorimetry measures the heat released or taken up as one component is titrated into another.
Sequence of Ndc80 complex (Homo sapiens) (O14777 whole entry, chain 1 of 4): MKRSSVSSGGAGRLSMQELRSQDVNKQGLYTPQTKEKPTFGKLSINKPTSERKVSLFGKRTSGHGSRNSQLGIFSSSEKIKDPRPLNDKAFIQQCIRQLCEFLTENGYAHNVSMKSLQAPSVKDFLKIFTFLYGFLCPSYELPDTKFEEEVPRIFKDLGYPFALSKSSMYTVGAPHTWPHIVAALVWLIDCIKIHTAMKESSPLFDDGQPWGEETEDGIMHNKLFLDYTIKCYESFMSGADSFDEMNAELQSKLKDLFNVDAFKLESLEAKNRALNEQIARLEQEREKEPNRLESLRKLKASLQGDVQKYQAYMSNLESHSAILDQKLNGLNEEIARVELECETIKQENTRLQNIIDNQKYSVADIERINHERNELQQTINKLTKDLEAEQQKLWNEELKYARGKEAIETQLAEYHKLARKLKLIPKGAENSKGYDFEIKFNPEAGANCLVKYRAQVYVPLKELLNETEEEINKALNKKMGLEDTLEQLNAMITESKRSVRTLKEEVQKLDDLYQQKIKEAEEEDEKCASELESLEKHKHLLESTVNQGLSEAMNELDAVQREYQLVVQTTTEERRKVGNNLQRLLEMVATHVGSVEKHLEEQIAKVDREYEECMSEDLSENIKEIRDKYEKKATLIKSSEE
Sequence of Ndc80 complex (Homo sapiens) (Q9BZD4 whole entry, chain 2 of 4, further chain): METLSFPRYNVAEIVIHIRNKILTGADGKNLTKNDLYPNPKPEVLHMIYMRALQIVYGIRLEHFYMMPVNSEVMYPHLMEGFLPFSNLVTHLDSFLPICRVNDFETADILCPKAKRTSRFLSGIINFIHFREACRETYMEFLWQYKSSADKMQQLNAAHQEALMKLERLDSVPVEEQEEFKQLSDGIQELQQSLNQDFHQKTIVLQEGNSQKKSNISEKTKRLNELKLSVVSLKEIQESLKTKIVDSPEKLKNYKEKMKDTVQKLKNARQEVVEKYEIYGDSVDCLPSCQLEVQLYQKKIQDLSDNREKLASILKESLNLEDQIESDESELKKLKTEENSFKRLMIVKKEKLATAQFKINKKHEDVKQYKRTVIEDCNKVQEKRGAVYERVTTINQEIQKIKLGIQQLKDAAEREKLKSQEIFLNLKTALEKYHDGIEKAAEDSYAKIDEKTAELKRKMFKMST
Sequence of Ndc80 complex (Homo sapiens) (Q8NBT2 whole entry, chain 3 of 4, further chain): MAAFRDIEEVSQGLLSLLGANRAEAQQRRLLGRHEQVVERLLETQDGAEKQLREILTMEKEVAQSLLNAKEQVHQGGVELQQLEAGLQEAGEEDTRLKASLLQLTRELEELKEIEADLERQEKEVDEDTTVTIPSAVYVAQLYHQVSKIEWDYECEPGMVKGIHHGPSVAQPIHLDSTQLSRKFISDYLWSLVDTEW
Sequence of Ndc80 complex (Homo sapiens) (Q9HBM1 whole entry, chain 4 of 4, further chain): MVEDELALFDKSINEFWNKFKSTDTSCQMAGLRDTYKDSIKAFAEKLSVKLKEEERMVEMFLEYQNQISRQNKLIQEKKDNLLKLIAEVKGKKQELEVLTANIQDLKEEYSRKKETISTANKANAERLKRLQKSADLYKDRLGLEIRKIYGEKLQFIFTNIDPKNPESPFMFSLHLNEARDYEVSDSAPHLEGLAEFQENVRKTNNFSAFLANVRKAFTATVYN

A word on the Kd: it is the equilibrium constant for the complex coming apart. With Mis12 complex (from UniProt Q9H081), the Kd is 10 nM.
